In patent US20230322924A1 (Janssen / Centocor, published 2023):
Like-named read-outs stand apart in the source and are kept apart here. One block for each binder: values may come before it.

How the values were obtained:
Cyno CD33 full length = target: T1, Cyno CD33 full length (cynomolgus monkey); test: flow cytometry on HEK293F cells expressing cyno CD33
T1 construct: also called cyCD33

Human CD33 full length = target: T2, Human CD33 full length (human, UniProt P20138 18-364); test: flow cytometry on HEK293F cells expressing human CD33
T2 construct: also called huCD33
T2 sequence (P20138 18-364 limits assumed): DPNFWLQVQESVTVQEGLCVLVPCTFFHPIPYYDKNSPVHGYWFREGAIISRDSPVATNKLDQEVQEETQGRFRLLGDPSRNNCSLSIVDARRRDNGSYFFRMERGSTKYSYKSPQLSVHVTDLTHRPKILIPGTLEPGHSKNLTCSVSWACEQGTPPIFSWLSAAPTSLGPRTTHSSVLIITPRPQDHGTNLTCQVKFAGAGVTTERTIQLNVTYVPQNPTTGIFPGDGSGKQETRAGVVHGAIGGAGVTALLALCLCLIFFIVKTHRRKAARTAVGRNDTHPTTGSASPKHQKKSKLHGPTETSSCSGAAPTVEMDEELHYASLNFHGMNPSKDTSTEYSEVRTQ

Human CD33-C2-HSA = target: T3, Human CD33-C2-HSA (human); test: SPRi off-rate screen (IBIS MX96)
T3 construct: C2 domain of human CD33 fused to HSA; also called C33W4; huCD33-C2-HSA

Human CD33 ECD-HSA [1] = target: T4, Human CD33 ECD-HSA (human); test: SPRi off-rate screen (IBIS MX96)
T4 construct: CD33 ECD fused at the C-terminus to monomeric HSA (C58S) and a six-histidine tag; also called C33W2; huCD33 ECD-HSA

Cyno CD33 ECD-HSA = target: T5, Cyno CD33 ECD-HSA (cynomolgus monkey); test: ProteOn SPR, mAb captured on anti-human Fc, antigen as analyte
T5 construct: Cyno CD33 ECD fused to HSA and a six-histidine tag; also called C33W1
Description: (§1) The panel of mAbs was then further characterized for full affinity analysis as well as epitope binning. The binding of anti-CD33 mAbs to recombinant human CD33 ECD-HSA (C33W2) and cyno CD33 ECD-HSA (C33W1) was measured by ProteOn SPR (Bio-Rad). […] Different mAbs were captured on the anti-human Fc IgG surface at 0.25 or 0.5 μg/ml (160-300 RU) in vertical ligand orientation, with the 6th ligand channel as no ligand surface control. Human and cyno CD33-HSA proteins at 0.3 μM concentration in 3-fold dilution series of 5 concentrations flew in as analyte to bind to captured mAbs in the horizontal orientation. A buffer sample was also injected in the 6th channel to monitor the dissociation of captured mAb and baseline stability. […] The raw biding data were processed by double referencing after subtracting the response data from: 1) the inter-spot to correct for the non-specific interactions between the Ag and the empty chip surface; 2) the buffer channel to correct for baseline drifting due to the dissociation of captured mAb surface over time. The processed data at all antigen concentrations for each mAb were globally fit to a 1:1 simple Langmuir binding model to extract estimates of the kinetic (kₒₙ, koff) and affinity (Kd) constants.

Human CD33 ECD-HSA [2] = target: T4, Human CD33 ECD-HSA; test: as above
Description: as §1

[3] = target: T6, cynomolgus monkey PSMA on HEK cells (cynomolgus); test: flow cytometry, mammalian Fab supernatant on cyno-PSMA HEK cells (PSMG5), anti-human kappa-RPE
T6 construct: whole, on cells; also called Cyno-PSMA HEK; PSMG5
Source text: (§2) (Mammalian Fab Supernatant Titration Curves for Anti-PSMA Phage Panning Hits vs Cyno PSMA HEK). […] In FIG. 24D, Mammalian-expressed supernatants were normalized for Fab expression via octet, and titrated against either human LNCAP, PSMG5 (Cyno-PSMA HEK), or PSMG9 (chimp-PSMA HEK) cells using flow cytometry. Geometric mean fluorescence intensity (GeoMFI) was plotted vs. Fab concertation using GraphPad Prizm.
(§3) A cell-based binding assay was designed to assess the binding capabilities of individual Fab-his fusions from E. coli supernatants to PSMA-expressing cells. Individual Fab clones were isolated from the round 3 output of all panning experiments following pIX excision. Fab clones were tested for binding to chimp and cyno PSMA expressing HEK cells, as well as to human PSMA on LNCaP cells. Briefly, PSMA expressing cells were aliquoted into a V-bottom plate (CoStar 3357) at a density of 200,000 per well and incubated with (100 μl) supernatants expressing Fab fragments for 1 hour on ice. […] Plates were read on a BD FACS Array flow cytometer. FACS data was analyzed in FlowJo software by live gating the healthy population of cells using forward scatter and side scatter, and then analyzing the cells within this gate for PE staining. Mean fluorescence intensity (MFI) was calculated and exported into Microsoft Excel. […]

[4] = target: T6, cynomolgus monkey PSMA on HEK cells; test: as above; remark: listed apart in the source
Source text: as §2, §3

MFI at 0 nM (background) (Cyno CD33 full length): 125 MFI
MFI at 0.6 nM (Cyno CD33 full length): 1730 MFI
MFI at 6 nM (Cyno CD33 full length): 7270 MFI
MFI at 60 nM (Cyno CD33 full length): 15100 MFI
MFI at 0 nM (background) (Human CD33 full length): 150 MFI
MFI at 0.6 nM (Human CD33 full length): 15700 MFI
MFI at 6 nM (Human CD33 full length): 101000 MFI
MFI at 60 nM (Human CD33 full length): 237000 MFI
koff (Human CD33-C2-HSA): 6.68e-05 s⁻¹
koff (Human CD33 ECD-HSA [1]): 1.29e-05 s⁻¹
Kd (Cyno CD33 ECD-HSA): 0.433 nM
koff (Cyno CD33 ECD-HSA): 0.00065 s⁻¹
kon (Cyno CD33 ECD-HSA): 1.5e+06 M⁻¹ s⁻¹
Kd (Human CD33 ECD-HSA [2]): 0.0302 nM
koff (Human CD33 ECD-HSA [2]): 4.29e-05 s⁻¹
kon (Human CD33 ECD-HSA [2]): 1.42e+06 M⁻¹ s⁻¹
B1: C33B912 (antibody, V domains shown)
VH: EVQLVESGGGLVQPGRSLRLSCAASGFTFDDYAMHWVRQAPGKGLEWVSGIGWSGGSIVYADSVKGRFTISRDNAKNSLYLQMNSLRAEDTALYYCAKDSPYGDFFDYWGQGTLVTVSS
VL: DIVMTQSPDSLAVSLGERATINCKSSQTVFYSSNNKNYLAWYQQKPGQPPKLLISWASTRKSGVPDRFSGSGSGTDFTLTVSSLQAEDVAVYYCQHYYSTPYTFGQGTKLEIK
notes: OMNIMouse-derived anti-CD33 mAb; also called C33H252/C33L118; C33F550

koff (Human CD33-C2-HSA): 0.00257 s⁻¹
koff (Human CD33 ECD-HSA [1]): 4.72e-05 s⁻¹
B2: C33B778 (antibody, IgG4, V domains shown)
VH: QVQLVESGGGVVQPGRSLRLSCVASGFTFSSYGMHWVRQAPGKGLEWVAVISYDGSNKYYADSVKGRFTISRDNSKNTLYLQMNSLRAEGTAVYYCAKDFRSFDWLPPDSASYHGMDVWGQGTTVTVSS
VL: SYELTQPPSVSVSPGQTASITCSGDKLGDKYACWYQQKPGQSPVLVIYQDGKRPSGIPERFSGSNFGNKATLTISGTQAMDEADYYCQAWDRNTVVFGGGTKLTVL
notes: also called C33H66/C33L60; C33F78

EC50 (read off the curve) [3]: ~0.2 µg/mL
B3: PSMM59 (Fab, V domains shown)
VH: EVQLVQSGAEVKKPGESLKISCKGSGYSFTSYWISWVRQMPGKGLEWMGIIYPGDSYTRYSPSFQGQVTISADKSISTAYLQWSSLKASDTAMYYCARDYEWELFDSRLDYWGQGTLVTVSS
VL: not shown
notes: Mammalian Fab supernatant; also called PSMB58

EC50 (read off the curve) [4]: ~0.4 µg/mL
B4: PSMM85 (Fab, V domains shown)
VH: EVQLLESGGGLVQPGGSLRLSCAASGFTFDSDWMSWVRQAPGKGLEWVSAISGNGGSTEYADSVKGRFTISRDNSKNTLYLQMNSLRAEDTAVYYCARDPYYYYDGDSYYGMDVWGQGTLVTVSS
VL: not shown
notes: Mammalian Fab supernatant; also called PSMB84
